This passage reports EC50 results from patent publication US20250145723A1 (MINGHUI PHARMACEUTICAL HANGZHOU, published 2025).

Broadly, the EC50 is the concentration at which the effect is half-maximal.

The chains are these.
B1: 5115-H1-M1-Fc (Fc fusion)
chain: EVQLVESGGGLVQPGGSLRLSCAASGRTFSSFVMSWFRQAPGKEREFVSAISGSGSRSRYADSVKGRFTISRDNSKNTLYLQMNSLRAEDTAVYYCAANPRRATPDYTQYAYWGQGTLVTVSS
notes: VHH-Fc; Fc not specified; not shown: Fc
B2: 5115-H1-M14-Fc (Fc fusion)
chain: EVQLVESGGGLVQPGGSLRLSCAASGRTFSSFVMSWFRQAPGKEREFVSAISGSGSRMRYADSVKGRFTISRDNSKNTLYLQMNSLRAEDTAVYYCAANPRRATPDLTQYAYWGQGTLVTVSS
notes: as for B1
B3: 5115-H1-M30-Fc (Fc fusion)
chain: EVQLVESGGGLVQPGGSLRLSCAASGARFSSFVMSWFRQAPGKEREFVSAISGSGSRHRYADSVKGRFTISRDNSKNTLYLQMNSLRAEDTAVYYCAANPRRATPDYTQYAYWGQGTLVTVSS
notes: as for B1
B4: 5115-H1-M5-Fc (Fc fusion)
chain: EVQLVESGGGLVQPGGSLRLSCAASGRYFSSFVMAWFRQAPGKGLEFVSAISGSGLRARYADSVKGRFTISRDNSKNTLYLQMNSLRAEDTAVYYCAANPRRATPDLTSYAYWGQGTLVTVSS
notes: as for B1
B5: 5115-H1-M23-Fc (Fc fusion)
chain: EVQLVESGGGLVQPGGSLRLSCAASGRTFKSFVMSWFRQAPGKEREFVSAISGSGSRARYADSVKGRFTISRDNSKNTLYLQMNSLRAEDTAVYYCAANPRRATPDMTQYAYWGQGTLVTVSS
notes: as for B1
B6: 5115-H1-M18-Fc (Fc fusion)
chain: EVQLVESGGGLVQPGGSLRLSCAASGRRFSSFVMSWFRQAPGKEREFVSAISGSGSRARYADSVKGRFTISRDNSKNTLYLQMNSLRAEDTAVYYCAANPRRATPDLTQYAYWGQGTLVTVSS
notes: as for B1
B7: 5115-H1-M6-Fc (Fc fusion)
chain: EVQLVESGGGLVQPGGSLRLSCAASGREFSSFVMAWFRQAPGKGLEFVSAISGSGSRARYADSVKGRFTISRDNSKNTLYLQMNSLRAEDTAVYYCAANPRRATPDLTSYAYWGQGTLVTVSS
notes: as for B1
B8: 5115-H1-M21-Fc (Fc fusion)
chain: EVQLVESGGGLVQPGGSLRLSCAASGKTFSSFVMSWFRQAPGKEREFVSAISGSGSRTRYADSVKGRFTISRDNSKNTLYLQMNSLRAEDTAVYYCAANPRRATPDYTQYAYWGQGTLVTVSS
notes: as for B1
B9: 5115-H1-M16-Fc (Fc fusion)
chain: EVQLVESGGGLVQPGGSLRLSCAASHRTFSSFVMSWFRQAPGKEREFVSAISGSGSRARYADSVKGRFTISRDNSKNTLYLQMNSLRAEDTAVYYCAANPRRATPDLTQYAYWGQGTLVTVSS
notes: as for B1
B10: 5115-H1-M28-Fc (Fc fusion)
chain: EVQLVESGGGLVQPGGSLRLSCAASGRTFSSFVMSWFRQAPGKEREFVSAISGSGSRYRYADSVKGRFTISRDNSKNTLYLQMNSLRAEDTAVYYCAANPRRATPDLKQYAYWGQGTLVTVSS
notes: as for B1
B11: 5115-H1-M24-Fc (Fc fusion)
chain: EVQLVESGGGLVQPGGSLRLSCAASGRTFSGFVMAWFRQAPGKGLEFVSAISGTGSRARYADSVKGRFTISRDNSKNTLYLQMNSLRAEDTAVYYCAANPRRATPDLTQYAYWGQGTLVTVSS
notes: as for B1
B12: 5115-H1-M26-Fc (Fc fusion)
chain: EVQLVESGGGLVQPGGSLRLSCAASGRTFSSFVMSWFRQAPGKEREFVSAISGSGSRYTYADSVKGRFTISRDNSKNTLYLQMNSLRAEDTAVYYCAANPRRATPDLMQYAYWGQGTLVTVSS
notes: as for B1
B13: 5115-H1-M8-Fc (Fc fusion)
chain: EVQLVESGGGLVQPGGSLRLSCAASGRTFSSFVMSWFRQAPGKEREFVSAISGSGSRQRYADSVKGRFTISRDNSKNTLYLQMNSLRAEDTAVYYCAANPRRATPDLSQYAYWGQGTLVTVSS
notes: as for B1
B14: 5115-H1-M29-Fc (Fc fusion)
chain: EVQLVESGGGLVQPGGSLRLSCAASGRTFSSFVMSWFRQAPGKEREFVSAISGSGSRAYYADSVKGRFTISRDNSKNTLYLQMNSLRAEDTAVYYCAANPRRATPDLRQYAYWGQGTLVTVSS
notes: as for B1
B15: 5115-H1-M11-Fc (Fc fusion)
chain: EVQLVESGGGLVQPGGSLRLSCAASGIRFSSFVMSWFRQAPGKEREFVSAISGSGSRHRYADSVKGRFTISRDNSKNTLYLQMNSLRAEDTAVYYCAANPRRATPDYTQYAYWGQGTLVTVSS
notes: as for B1
B16: 5115-H1-M4-Fc (Fc fusion)
chain: EVQLVESGGGLVQPGGSLRLSCAASGRFFSSFVMSWFRQAPGKEREFVSAISGSGSRFRYADSVKGRFTISRDNSKNTLYLQMNSLRAEDTAVYYCAANPRRATPDYTQYAYWGQGTLVTVSS
notes: as for B1
B17: 5115-H1-M7-Fc (Fc fusion)
chain: EVQLVESGGGLVQPGGSLRLSCAASGRTFSSFVMSWFRQAPGKEREFVSAISGRGSRAYYADSVKGRFTISRDNSKNTLYLQMNSLRAEDTAVYYCAANPRRATPDLRQYAYWGQGTLVTVSS
notes: as for B1
B18: 5115-H1-M20-Fc (Fc fusion)
chain: EVQLVESGGGLVQPGGSLRLSCAASGRTFRSFVMSWFRQAPGKEREFVSAISGSGSRYRYADSVKGRFTISRDNSKNTLYLQMNSLRAEDTAVYYCAANPRRATPDYTQYAYWGQGTLVTVSS
notes: as for B1
B19: 5115-H1-M22-Fc (Fc fusion)
chain: EVQLVESGGGLVQPGGSLRLSCAASGRTFSSFVMSWFRQAPGKEREFVSAISGSGSRSRYADSVKGRFTISRDNSKNTLYLQMNSLRAEDTAVYYCAANPRRATPDLLQYAYWGQGTLVTVSS
notes: as for B1
B20: 5115-H1-M12-Fc (Fc fusion)
chain: EVQLVESGGGLVQPGGSLRLSCAASGRTFSSFVMSWFRQAPGKEREFVSAISGSGSRARYADSVKGRFTISRDNSKNTLYLQMNSLRAEDTAVYYCAANPRRATPDLRQYAYWGQGTLVTVSS
notes: as for B1
B21: 5115-H1-M15-Fc (Fc fusion)
chain: EVQLVESGGGLVQPGGSLRLSCAASGRTFSSFVMSWFRQAPGKEREFVSAISGSGSRMRYADSVKGRFTISRDNSKNTLYLQMNSLRAEDTAVYYCAANPRRATPDLRQYAYWGQGTLVTVSS
notes: as for B1
B22: 5115-H1-M25-Fc (Fc fusion)
chain: EVQLVESGGGLVQPGGSLRLSCAASGRFFSSFVMSWFRQAPGKEREFVSAISGSGSRARYADSVKGRFTISRDNSKNTLYLQMNSLRAEDTAVYYCAANPRRATPDYSQYAYWGQGTLVTVSS
notes: as for B1
B23: 5115-H1-M13-Fc (Fc fusion)
chain: EVQLVESGGGLVQPGGSLRLSCAASLGTFSSFVMSWFRQAPGKEREFVSAISGSGSRARYADSVKGRFTISRDNSKNTLYLQMNSLRAEDTAVYYCAANPRRATPDYTQYAYWGQGTLVTVSS
notes: as for B1
B24: 5115-H1-M19-Fc (Fc fusion)
chain: EVQLVESGGGLVQPGGSLRLSCAASGRTFSSFVMSWFRQAPGKEREFVSAISGSGSRMRYADSVKGRFTISRDNSKNTLYLQMNSLRAEDTAVYYCAANPRRATPDLHQYAYWGQGTLVTVSS
notes: as for B1
B25: 5115-H1-M27-Fc (Fc fusion)
chain: EVQLVESGGGLVQPGGSLRLSCAASGRTLSSFVMAWFRQAPGKGLEFVSAISGSGLRARYADSVKGRFTISRDNSKNTLYLQMNSLRAEDTAVYYCAANPRYATPDLTQYAYWGQGTLVTVSS
notes: as for B1
B26: 5115-H1-M9-Fc (Fc fusion)
chain: EVQLVESGGGLVQPGGSLRLSCAASGRTFSSFVMSWFRQAPGKEREFVSAISGSGSRLRYADSVKGRFTISRDNSKNTLYLQMNSLRAEDTAVYYCAANPRRATPDLLQYAYWGQGTLVTVSS
notes: as for B1
B27: 5115-H1-M2-Fc (Fc fusion)
chain: EVQLVESGGGLVQPGGSLRLSCAASGRTFSSFVMSWFRQAPGKEREFVSAISGSGSRARYADSVKGRFTISRDNSKNTLYLQMNSLRAEDTAVYYCAANPRRATPDLLQYAYWGQGTLVTVSS
notes: as for B1
B28: 5115-H1-M31-Fc (Fc fusion)
chain: EVQLVESGGGLVQPGGSLRLSCAASGRTFSSFVMSWFRQAPGKEREFVSAISGSGSRARYADSVKGRFTISRDNSKNTLYLQMNSLRAEDTAVYYCAANPRRATPDMRQYAYWGQGTLVTVSS
notes: as for B1
B29: 5115-H1-M32-Fc (Fc fusion)
chain: EVQLVESGGGLVQPGGSLRLSCAASGRARSSFVMSWFRQAPGKEREFVSAISGSGSRVRYADSVKGRFTISRDNSKNTLYLQMNSLRAEDTAVYYCAANPRRATPDYTQYAYWGQGTLVTVSS
notes: as for B1
B30: 5115-H1-M33-Fc (Fc fusion)
chain: EVQLVESGGGLVQPGGSLRLSCAASMPTFSSFVMSWFRQAPGKEREFVSAISGSGSRSRYADSVKGRFTISRDNSKNTLYLQMNSLRAEDTAVYYCAANPRRATPDYTQYAYWGQGTLVTVSS
notes: as for B1

T1 sequence (P08069 31-932 limits assumed): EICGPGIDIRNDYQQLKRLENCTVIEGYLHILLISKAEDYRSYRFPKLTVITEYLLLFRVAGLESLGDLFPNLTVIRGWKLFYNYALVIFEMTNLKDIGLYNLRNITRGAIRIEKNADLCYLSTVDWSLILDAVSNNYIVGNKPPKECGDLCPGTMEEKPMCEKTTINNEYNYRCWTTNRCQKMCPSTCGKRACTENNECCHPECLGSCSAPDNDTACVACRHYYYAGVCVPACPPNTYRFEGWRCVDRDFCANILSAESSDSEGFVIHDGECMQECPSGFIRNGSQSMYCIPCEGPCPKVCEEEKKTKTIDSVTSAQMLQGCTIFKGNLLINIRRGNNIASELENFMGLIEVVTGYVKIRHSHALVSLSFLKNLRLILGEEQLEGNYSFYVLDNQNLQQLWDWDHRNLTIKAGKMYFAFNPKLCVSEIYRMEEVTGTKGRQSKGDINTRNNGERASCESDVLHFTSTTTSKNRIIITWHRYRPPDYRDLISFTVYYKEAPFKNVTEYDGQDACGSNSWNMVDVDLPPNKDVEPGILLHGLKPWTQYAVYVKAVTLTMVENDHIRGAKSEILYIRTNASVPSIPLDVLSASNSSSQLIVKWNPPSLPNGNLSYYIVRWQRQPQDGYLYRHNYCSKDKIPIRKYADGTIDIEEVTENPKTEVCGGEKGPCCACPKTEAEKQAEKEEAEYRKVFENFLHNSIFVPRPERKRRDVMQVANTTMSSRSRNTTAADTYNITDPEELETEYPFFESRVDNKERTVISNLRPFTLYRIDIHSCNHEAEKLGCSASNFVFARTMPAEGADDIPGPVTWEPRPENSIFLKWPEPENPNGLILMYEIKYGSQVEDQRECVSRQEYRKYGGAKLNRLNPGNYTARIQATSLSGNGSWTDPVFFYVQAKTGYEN

The test has as its target T1, recombinant human IGF-1R-his (human, UniProt P08069 31-932).
T1 construct: Recombinant his-tagged protein; also called hIGF-1R-his; hIGF1R-his; not shown: his tag
Kind of test: ELISA, coated hIGF-1R-his. As for the experimental part:
The binding activity of the nanobody-Fc fusion proteins obtained after two rounds of mutant construction with the antigen proteins (recombinant human IGF-1R-His) was detected by an ELISA method: 2 μg/mL recombinant human IGF1R-His antigen proteins were added to a 96-well ELISA plate, at 30 μL/well, for coating overnight at 4° C. The plate was washed three times with PBST. PBS containing 5% skim milk powder was added for blocking at room temperature for 2 h. The plate was washed three times with PBST. The nanobody-Fc fusion proteins were serially diluted 3-fold, and the nanobody-Fc fusion proteins of different concentrations were added to each well at 30 μL/well and incubated at room temperature for 1 h. The plate was washed three times with PBST, and horseradish peroxidase-labeled anti-human Fc antibodies were added at 30 μL/well and incubated at room temperature for 50 min. The plate was washed three times with PBST. TMB substrate solution was added at 30 μL/well for color development in the dark for 1-5 min, 30 μL of 2 M hydrochloric acid was added to terminate the reaction, and the OD₄₅₀ was read using a microplate reader. Curve fitting was conducted and the EC₅₀ value was calculated using Graphpad Prism software.
With B1, the EC50 is 1.22 ng/mL.

As for B2, the EC50 is 4.31 ng/mL.

As to B3, the EC50 was found to be 2.45 ng/mL.

Consider B4, for which the EC50 amounted to 5.88 ng/mL.

For B5, the EC50 was found to be 1.74 ng/mL.

For B6, the EC50 was found to be 2.89 ng/mL.

For the molecule B7, the half-maximal effective concentration (EC50) was determined as 2.62 ng/mL.

In the case of B8, the EC50 is 3.35 ng/mL.

In the case of B9, the concentration giving a half-maximal response (EC50) is 3.61 ng/mL.

In the case of B10, the EC50 was 1.18 ng/mL.

As for B11, the EC50 stood at 1.83 ng/mL.

Take B12: the EC50 came to 1.52 ng/mL.

Turning to B13, the EC50 worked out at 2 ng/mL.

Turning to B14, the EC50 is 1.62 ng/mL.

On to B15, for which the EC50 stood at 2.51 ng/mL.

As to B16, the EC50 came to 1.94 ng/mL.

For B17, the EC50 turned out to be 3.04 ng/mL.

On to B18, for which the EC50 came to 2.21 ng/mL.

In the case of B19, the EC50 amounted to 1.79 ng/mL.

As to B20, the EC50 came out at 1.41 ng/mL.

As for B21, the EC50 came out at 2.67 ng/mL.

As for B22, the EC50 amounted to 1.33 ng/mL.

B23: the EC50 is 2.9 ng/mL.

As for B24, the EC50 is 1.93 ng/mL.

B25: the EC50 came to 1.79 ng/mL.

As for B26, the EC50 came out at 2.3 ng/mL.

For B27, the EC50 worked out at 1.5 ng/mL.

With B28, the EC50 was determined as 1.84 ng/mL.

Turning to B29, the EC50 came out at 1.58 ng/mL.

For B30, the EC50 amounted to 1.15 ng/mL.
